The supplement of paper PMC9170038

System: MS2 coat protein
Assay: apparent KD of MS2 coat protein; designed switch direction (-1 OFF switch, 1 ON switch): -1; higher = weaker reporter binding
Outline: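 Stalled E. coli RNA polymerase transcribed designed RNA switches on Illumina chips, which were then titrated with SNAP-549-labelled MS2 coat protein, doubling from 0.7 or 1.5 nM to 3 µM. Steps lasted from 0.8–1.5 h at the lowest concentration to 10–20 min at the highest. The apparent KD is each design's median over clusters of curve-fitted normalised fluorescence.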

[1] = Eterna round: R95, input ligand: FMN 200 uM
[2] = Eterna round: R95, input ligand: microRNA oligo, concentration not stated
[3] = Eterna round: R95, input ligand: none
[4] = input ligand: microRNA oligo, concentration not stated

Sequence: AGUAAGCUAGGAUAUGCUUUGGGAAAGCAUUCCUUCGAUAAACUUGAGGAUCACCCAAGUAGAAGGAGCUAAAU [jl-ex2.4.49 ViennaUCT mod] (Eterna round: R97, puzzle: Exclusion 2)
- apparent KD of MS2 coat protein (input ligand: FMN 200 uM): 17.5 nM
- apparent KD of MS2 coat protein (input ligand: none): 15.4 nM

Sequence: ACGUGAUAUCUGUCGGUGGACAUGAGGAUCACCCAUGUAAGCUUUUUGCCCGUCUUAUAACCCGGUGACAGACCUUC [Orlequla] (puzzle: Sensor v3, turn-off variant 1)
- apparent KD of MS2 coat protein [1]: 32.4 nM
- apparent KD of MS2 coat protein [2]: 340 nM
- apparent KD of MS2 coat protein [3]: 53.6 nM

Sequence: GGGCCACAUGAGGAUCACCCAUGUUAGGAUAUUUGUUCGGUGCUAUGAAUUCAAGGCUAGAGAAGGAACAGGGA [Eternabot (L1) Solution 46] (Eterna round: R97, puzzle: Exclusion 1)
- apparent KD of MS2 coat protein (input ligand: FMN 200 uM): 22.4 nM
- apparent KD of MS2 coat protein (input ligand: none): 23 nM

Sequence: GCCGAAAGUGUGAGGAUAUACCUAUGGAAACAUAGGUAGAAGGCACAUGAGGAUCACCCAUGUGUUUCAACGGC [Mat - Exclusion 4 - Eli Mod - D20] (Eterna round: R97, puzzle: Brourd's mod of Exclusion 4)
- apparent KD of MS2 coat protein (input ligand: FMN 200 uM): 67 nM
- apparent KD of MS2 coat protein (input ligand: none): 24.5 nM

Sequence: UGUUGUCGCGCAGGAUAUGAGGAUCACCCAUAUCAGGAUAUCGAAAGAGAAUUUCUGAGGAUCACCCAGAAGGGCGGGACAACU [pwkr exNG2 2xF5 2xFMN.34] (Eterna round: R96, puzzle: Exclusion NG 2)
- apparent KD of MS2 coat protein (input ligand: FMN 200 uM): 210 nM
- apparent KD of MS2 coat protein [4]: 35.6 nM
- apparent KD of MS2 coat protein (input ligand: none): 42.9 nM

Sequence: AGAUCUAGGACAGGAUAUACUGAUGGCUUCAUCGAAGAUGAAGCCAUCACAUGAGGAUCACCCAUGUAGAAGGGUCCUAGAUCA [Omei Exc(NG) 2Av8] (Eterna round: R96, puzzle: Exclusion NG 2)
- apparent KD of MS2 coat protein [4]: 9.55 nM

Sequence: AACGUGGCAAAGGAUAUCCACACGGCAAAGCCGGGAGAAGGUUGCACAUGAGGAUCACCCAUGUGAACCAAACA [Onsozamati] (puzzle: Exclusion 6)
- apparent KD of MS2 coat protein [2]: 13.6 nM

Sequence: GCACGAAGUGUAGGAUAUCUGUGCGAUUAGCUCAGAGAAGGACACAUGAGGAUCACCCAUGUGUUCCAAUCACAAAAUACGUGC [Eli exng1 - 060] (Eterna round: R96, puzzle: Exclusion NG 1)
- apparent KD of MS2 coat protein (input ligand: FMN 200 uM): 11.7 nM
- apparent KD of MS2 coat protein [4]: 11 nM
- apparent KD of MS2 coat protein (input ligand: none): 11.9 nM

Sequence: UAUAAAACAUAGGAUAUCGAAUAUAUCAUUUAACGAGAAGGAUGAACAUGAGGAUCACCCAUGUGGUAUCAUGG [Mat - Exclusion 6 - JL Mod - D8] (puzzle: Exclusion 6)
- apparent KD of MS2 coat protein [1]: 286 nM
- apparent KD of MS2 coat protein [2]: 262 nM
- apparent KD of MS2 coat protein [3]: 172 nM

Sequence: CCCGGGCUUGUGAGGAUAUUGUGUGUGAAAGCGCGCGAGAAGGCACAUGAGGAUCACCCAUGUAAGGGCCCGGG [-34.6, -32.6 kcal, A 23%, 6bis-0] (Eterna round: R97, puzzle: Brourd's mod of Exclusion 4)
- apparent KD of MS2 coat protein (input ligand: FMN 200 uM): 19.3 nM
- apparent KD of MS2 coat protein (input ligand: none): 85.9 nM

Sequence: CUUCACCCACCAGAGCUCACCCACAUACCAGCUCUGGUGACAUGAGGAUCACCCAUGUUUUUUGCCCGUCUUAUCUU [Intibima] (Eterna round: R96, puzzle: Sensor v3, turn-off variant 2)
- apparent KD of MS2 coat protein (input ligand: FMN 200 uM): 65 nM
- apparent KD of MS2 coat protein [4]: 218 nM
- apparent KD of MS2 coat protein (input ligand: none): 79.1 nM

Sequence: CGUGGAUGAAAGGAUAUUGAGGUCUGACUGCCACAAGAAGGUUCAACAUGAGGAUCACCCAUGUCUGAUCCUAA [Xeanorti] (Eterna round: R97, puzzle: Exclusion 6)
- apparent KD of MS2 coat protein (input ligand: FMN 200 uM): 47.4 nM
- apparent KD of MS2 coat protein (input ligand: none): 14.2 nM

Sequence: UACAUGAGGAUCACCCAUGUUUUGUCGUGUAUGGUAUUUAUCUAGGAUAUCAUUUUAUCUAGUUAUGAGAAGGAGAAUAUUAAU [JMF's solution 89] (Eterna round: R96, puzzle: Exclusion NG 3)
- apparent KD of MS2 coat protein [4]: 26.6 nM

Sequence: CUUUUGUGAGGAUAUUAGUAGUAAAAAAAUAAAAUUACUACUGAGAAGGCACAUGAGGAUCACCCAUGUUCCUU [salish99_ex4_r3_039] (puzzle: Exclusion 4)
- apparent KD of MS2 coat protein [2]: 14.1 nM

Sequence: CUUCACCCACCAGAGCUCACCCACAUACCAGCUCUGGUGACAUGAGGAUCACCCAUGUUUUUUGCCCGUCUUAUCUU [Intibima] (puzzle: Sensor v3, turn-off variant 2)
- apparent KD of MS2 coat protein [1]: 41.3 nM
- apparent KD of MS2 coat protein [2]: 189 nM
- apparent KD of MS2 coat protein [3]: 46.8 nM

Sequence: UAUUAACAAGUAAGAUCCUACAUGAGGAUCACCCAUGUGCUCGUCUUAUAAGGUACUGUGACGAAAGUCACGGUACC [Sensor 3, v1 - 72] (puzzle: Sensor v3, turn-off variant 1)
- apparent KD of MS2 coat protein [1]: 37.6 nM
- apparent KD of MS2 coat protein [2]: 46.7 nM
- apparent KD of MS2 coat protein [3]: 39.4 nM

Sequence: GGAAAACGCUGAGGAUAUGGAAGGAAAGGAAGACCAGAAGGCAGGGUCACACAACAUGAGGAUCACCCAUGUGUGUGUAGCGGA [exng1 ex3] (Eterna round: R96, puzzle: Exclusion NG 1)
- apparent KD of MS2 coat protein (input ligand: FMN 200 uM): 9.75 nM
- apparent KD of MS2 coat protein [4]: 10.2 nM
- apparent KD of MS2 coat protein (input ligand: none): 12.7 nM

Sequence: AGUACGAUGCGUGCUGACAUGCGUCGUGCAGCAGGUGAUACAUGAGGAUCACCCAUGUCCUCAUUUGCUCGUCUUGA [Mat - Sensor v3 - Turn-off var 2 - D19] (puzzle: Sensor v3, turn-off variant 2)
- apparent KD of MS2 coat protein [1]: 28.5 nM
- apparent KD of MS2 coat protein [2]: 499 nM
- apparent KD of MS2 coat protein [3]: 28.4 nM

Sequence: GUUUGACAUGAGGAUCACCCAUGUAAGGAUAUACGAGUAGCUACUAGGUAGUUAGUAUGUAGAAGGUACGUGUU [EX1 #65] (Eterna round: R97, puzzle: Exclusion 1)
- apparent KD of MS2 coat protein (input ligand: FMN 200 uM): 50.4 nM
- apparent KD of MS2 coat protein (input ligand: none): 40.3 nM

Sequence: GGAAGAGAGAUAGGAUAUCAGAGGAAGAUGGUGAGAGAGACAUGAGGAUCACCCAUGUGAAGGAAUGAGAAGGGUCAGAAGGAA [EXNG2 V2 h] (Eterna round: R96, puzzle: Exclusion NG 2)
- apparent KD of MS2 coat protein (input ligand: FMN 200 uM): 130 nM
- apparent KD of MS2 coat protein [4]: 133 nM
- apparent KD of MS2 coat protein (input ligand: none): 101 nM

Sequence: UUUUUAUAUGAAGGAUAUACUUAACAUGAGGAUCACCCAUGUGGUGUUGUGAGUGAGUGAGUUUAGUAGAAGGUCAAGUAUUUU [JMF's solution 8] (Eterna round: R96, puzzle: Exclusion NG 2)
- apparent KD of MS2 coat protein (input ligand: FMN 200 uM): 431 nM
- apparent KD of MS2 coat protein [4]: 265 nM
- apparent KD of MS2 coat protein (input ligand: none): 431 nM

Sequence: UAAUUGUGAGGAUAUUCGUUUAACACGGAGACGUGUUGAACGGAGAAGGCACAUGAGGAUCACCCAUGUUCCUU [Mat - Exclusion 4 - JL Mod - D17] (Eterna round: R97, puzzle: Exclusion 4)
- apparent KD of MS2 coat protein (input ligand: FMN 200 uM): 89.9 nM
- apparent KD of MS2 coat protein (input ligand: none): 19.3 nM

Sequence: CAGGAACCAGCAGGAUAUGUGCGGCUGCUAACGUGAACCAACAUGAGGAUCACCCAUGUAGGCACGCAGAAGGGCUCAGCCUGC [Orgevebe] (Eterna round: R96, puzzle: Exclusion NG 2)
- apparent KD of MS2 coat protein (input ligand: FMN 200 uM): 8.78 nM
- apparent KD of MS2 coat protein [4]: 10.6 nM
- apparent KD of MS2 coat protein (input ligand: none): 13.5 nM

Sequence: GCUGGAAGAGGAUAUACAUAAGGUGCGUCAGCACCGGGCCUACAUGAGGAUCACCCAUGUAGAAGGCUUCCAGC [EX2 #78] (Eterna round: R97, puzzle: Exclusion 2)
- apparent KD of MS2 coat protein (input ligand: FMN 200 uM): 55.1 nM
- apparent KD of MS2 coat protein (input ligand: none): 15.2 nM

Sequence: AACUUACAUGAGGAUCACCCAUGUCAGGAUAUCGAAAUUGGCCUGCAAUUACAGGCGACGAGAAGGGACGUUUU [EX1 B.24] (Eterna round: R97, puzzle: Exclusion 1)
- apparent KD of MS2 coat protein (input ligand: FMN 200 uM): 29.3 nM
- apparent KD of MS2 coat protein (input ligand: none): 16.9 nM

Sequence: AAACACUGAGGAUAUGCGUAACAACAAAGCCUCACGUGCCAACAUGAGGAUCACCCAUGUAGAAGGCAGUCCAA [Mod R3 Insanara 17 - Jieux - Exclusion 2] (Eterna round: R97, puzzle: Exclusion 2)
- apparent KD of MS2 coat protein (input ligand: FMN 200 uM): 25.2 nM
- apparent KD of MS2 coat protein (input ligand: none): 25.1 nM

Sequence: GAAAAGGUAGGAUAUACGAAAAAAAAGGGUAGAAAAAUAACACAUGAGGAUCACCCAUGUAGAAGGACCAAAAG [salish99_ex2_r3_074] (puzzle: Exclusion 2)
- apparent KD of MS2 coat protein [1]: 111 nM
- apparent KD of MS2 coat protein [2]: 23 nM
- apparent KD of MS2 coat protein [3]: 29 nM

Sequence: GGAUCGAGUGUGAGGAUAUGCAGGUCCUUGGAUCUGCAGAAGGCACAUGAGGAUCACCCAUGUGAUCAAGAUCC [Mat - Exclusion 4 - Eli Mod - D47] (Eterna round: R97, puzzle: Brourd's mod of Exclusion 4)
- apparent KD of MS2 coat protein (input ligand: FMN 200 uM): 36.6 nM
- apparent KD of MS2 coat protein (input ligand: none): 777 nM

Sequence: AUUUAAACAUAGGAUAUCGAAUUUAUCAUUUAACGAGAAGGAUGAACAUGAGGAUCACCCAUGUGGUAUCAUGG [Mat - Exclusion 6 - JL Mod - D4] (puzzle: Exclusion 6)
- apparent KD of MS2 coat protein [1]: 398 nM
- apparent KD of MS2 coat protein [2]: 279 nM
- apparent KD of MS2 coat protein [3]: 368 nM

Sequence: UUUAGUUCAGGAUAUGUAGAUAUUAACAUGAGGAUCACCCAUGUAGAUCCUGAAUUGACUACAGAAGGGAGCAUUU [Mod of Brourd 17 - Jieux - Exclusion 5] (Eterna round: R97, puzzle: Exclusion 5)
- apparent KD of MS2 coat protein (input ligand: FMN 200 uM): 44.7 nM
- apparent KD of MS2 coat protein (input ligand: none): 17.7 nM

Sequence: CUGUUUUUCGCAGGAUAUGCUCCUCCAUUAUUUGCAGAAGGGCGUUAAACAUGAGGAUCACCCAUGUAUGGUAAUGACUAUUUC [JR_ExcNG1_Sub065] (Eterna round: R96, puzzle: Exclusion NG 1)
- apparent KD of MS2 coat protein (input ligand: FMN 200 uM): 125 nM
- apparent KD of MS2 coat protein [4]: 43.6 nM
- apparent KD of MS2 coat protein (input ligand: none): 40.7 nM

Sequence: UUUUGGCAGGCUAUUAUUAACAUGAGGAUCACCCAUGUGCAUCCAAAAUUACUUUUAGAUCUUGCUGGUCUUAUAUA [JR_STOV1_Sub085] (Eterna round: R97, puzzle: Sensor, turn-off variant 1)
- apparent KD of MS2 coat protein (input ligand: FMN 200 uM): 284 nM
- apparent KD of MS2 coat protein (input ligand: none): 330 nM

Sequence: ACUUAUAGAGGAUAUACAGAAUAUUACAUGAGGAUCACCCAUGUUCUUCAAUGUAUAUUUGUAGAAGGCUAAGGAA [EX-5 Malc#7] (puzzle: Exclusion 5)
- apparent KD of MS2 coat protein [1]: 192 nM
- apparent KD of MS2 coat protein [2]: 45.6 nM
- apparent KD of MS2 coat protein [3]: 40.6 nM
